The source of these data is the supplement of paper PMC12042874.

± gives the uncertainty stated by the source.

This series in a line: amyloid nucleation score (Sup35N fusion, yeast selection) (log enrichment); library NNK1; higher = more nucleation; inactive = no reads after selection. The method in brief: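 The nucleation score, computed with DiMSum, is the log enrichment of output over input reads, centred on the mode score of non-aggregating sequences. Sequences with under 100 input reads were dropped. Reads were generated by Illumina sequencing of plasmid inserts from psi-negative yeast with Sup35N fused to peptides of 20 random codons, induced with 100 μM copper sulfate for 24 hours and grown 7 days at 30°C on medium lacking adenine and uracil.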

Take GDRVAEFQFPLSYTRPELSL: the amyloid nucleation score amounted to 0.046 ± 0.72.

The substance KNDGYIH had an amyloid nucleation score of -0.561 ± 1.4.

With QIFLWFGISNKDFLHFVSWS, the amyloid nucleation score is 0.158 ± 0.57.

Turning to ADCGRSVLTKVKRCDTFFSG, the amyloid nucleation score came to 0.023 ± 0.27.

RLNDNRYSYVVVS had an amyloid nucleation score of -0.127 ± 0.64.

With DSINCCMMCYEK, the amyloid nucleation score amounted to 7.567 ± 0.071.

Regarding MRDLALLAEVLVTD, the amyloid nucleation score came out at 0.295 ± 0.4.

In turn, TNTSHVLTLESCSCRERVSR came in with an amyloid nucleation score of 0.969 ± 0.55.

For the substance AQAVLQLETRTIKIYRDGPK, the amyloid nucleation score was -1.08 ± 2.7.

For the substance MLFLARRILSEYRFMPTWVG, the amyloid nucleation score entry was “inactive”.

YNGGCACMEAVMRFGGFFTL: the amyloid nucleation score was -0.066 ± 0.28.

As for TPDHLWLWLFYLNCNTENYG, the amyloid nucleation score is 7.757 ± 0.046.

Turning to FLSCFDILLHGVSYNSFQYW, the amyloid nucleation score is 0.54 ± 0.42.

For the substance STVWLSVGALAFARASGRRA, the amyloid nucleation score came to 3.74 ± 0.12.

The substance HQKACCSRLMNCGYNSAKWR registered an amyloid nucleation score of -0.612 ± 0.89.

Substance CYALNWCRLPALHSFFQCRK gave an amyloid nucleation score of 0.853 ± 0.65.

VIHYSGLSMVAVQ gave an amyloid nucleation score of -0.379 ± 0.49.

Substance TVNVFFLQACSRSC gave an amyloid nucleation score of 7.73 ± 0.06.

AFCIFCSRLAEIAHLAF: the amyloid nucleation score is 7.133 ± 0.046.

The substance FYLRSSTNEPRENNVNLALY came in with an amyloid nucleation score of -0.345 ± 1.7.

In turn, GRLVVIAYQMQSCDSTMD had an amyloid nucleation score of -0.115 ± 0.42.

Regarding CSCYQALKLA, the amyloid nucleation score was -0.49 ± 0.88.

For the substance TIIFYVFQCSMLRFIQMV, the amyloid nucleation score entry is “inactive”.

MLHHLSYVAVRWCKRTRKLC yielded an amyloid nucleation score of 0.405 ± 0.71.

VRIILWTMDVIFRLMFTRDQ: the amyloid nucleation score came out at 0.41 ± 0.51.

On to FNLVKT, for which the amyloid nucleation score came out at 0.704 ± 0.69.

For the substance CCQSFLLKSPSYRAMAFIWW, the amyloid nucleation score is -0.929 ± 0.33.

IKVLSYISWCGGFEKRCVGG registered an amyloid nucleation score of 1.05 ± 0.46.

The substance MICYLF displayed an amyloid nucleation score of 0.019 ± 0.26.

Turning to TKCGMGYISGISSPASGQYG, the amyloid nucleation score amounted to 0.767 ± 1.

CLAFQLDWLRMGLFKSMEGT came in with an amyloid nucleation score of -0.384 ± 0.35.

Consider SSVRLDKNN, for which the amyloid nucleation score is -0.315 ± 0.52.

Turning to EAGQLLL, the amyloid nucleation score result is “inactive”.

In the case of FNLFVTFSMLRPWSAVPMLA, the amyloid nucleation score came to 0.338 ± 0.81.

Take TAIRWHFGNFVIDNIRNRGI: the amyloid nucleation score worked out at 1.25 ± 0.19.

The substance LAVTFQGIGFSYSILHITTY yielded an amyloid nucleation score of -0.164 ± 0.44.

LVDWVYGWGVVVFAMSQGSE came in with an amyloid nucleation score of 0.125 ± 1.4.

The substance IMGHIKM displayed an amyloid nucleation score of -0.366 ± 0.44.

The substance MHVQRVFTRCFKFSPQFVRH registered an amyloid nucleation score of -1.11 ± 0.36.

For RAPLLMSVTLLRHQFCTRME, the amyloid nucleation score was 1.8 ± 0.21.

In turn, TWCTV had an amyloid nucleation score of 0.082 ± 0.28.

On to DMKNYVPVLLGNTMIMLWGL, for which the amyloid nucleation score stood at 3.08 ± 0.085.

YIAMYGARTPSCVVKPG displayed an amyloid nucleation score of -0.832 ± 0.55.

In the case of NQTNIMCSPNIICSVSGQSG, the amyloid nucleation score was found to be 6.743 ± 0.047.

Substance WCSLGCNYTVLFTLLGMVNT came in with an amyloid nucleation score of 0.116 ± 0.37.

With RGSQGLVNLYIAFPMECLGI, the amyloid nucleation score worked out at 3.73 ± 0.087.

In turn, KFSCGTFSLRHPT came in with an amyloid nucleation score of 0.725 ± 0.52.

YRGIEAFCAGTNWTSPKWSR displayed an amyloid nucleation score of -0.169 ± 0.3.

Consider FINLASVVSIVVLVT, for which the amyloid nucleation score was found to be 4.24 ± 0.076.

In turn, VDNVRPWRGYQPHSLVLPIV returned an amyloid nucleation score of 0.516 ± 0.47.

FAWGGFC came in with an amyloid nucleation score of -0.155 ± 0.86.

On to ADDGAVLCRCEAGGTSWSVC, for which the amyloid nucleation score result was “inactive”.

In turn, HLRRYMDRYRRGQYGFSYFW displayed an amyloid nucleation score of 1.09 ± 0.64.

AGLMTGATSLQLMKFCSLGG came in with an amyloid nucleation score of -0.729 ± 0.71.

WYIMGFTNDRVLRNLMCYTC showed an amyloid nucleation score of 0.21 ± 0.35.

Substance CNWPDLDLSNRKWNPMKSML displayed an amyloid nucleation score of 0.146 ± 0.69.

Substance IGCSCNPYGTFWG had an amyloid nucleation score of 5.93 ± 0.066.

With KPDRQVANFRDWFG, the amyloid nucleation score is -0.244 ± 1.2.

For the substance PLMWS, the amyloid nucleation score is 0.251 ± 0.29.

In turn, YSVWVYRLMRYELNVTFCR came in with an amyloid nucleation score of 0.093 ± 0.2.

In the case of LVLVWVAIHFDRLRIHRFFI, the amyloid nucleation score entry was “inactive”.

In turn, FKVSVALSWDDVSQFGYGYG gave an amyloid nucleation score of 0.117 ± 0.65.

In the case of GSGSYRGTRLECLCFW, the amyloid nucleation score was determined as 0.025 ± 1.1.

On to SLACRVGKYNHSYLSSLV, for which the amyloid nucleation score came out at 0.583 ± 0.4.

Consider CGDMWLTDSLHGMNCSLFRR, for which the amyloid nucleation score result is “inactive”.

As for ICYNKSSP, the amyloid nucleation score was -0.097 ± 1.2.

On to YRIHKIIKEPAEVTSLLRW, for which the amyloid nucleation score is -0.813 ± 0.52.

NAAYRVWMWKSLVRSLGRYK displayed an amyloid nucleation score of 0.647 ± 0.4.

Substance QFIRILDQSKILYLCCFLDT displayed an amyloid nucleation score of 5.64 ± 0.061.

In turn, QIHFFAFRFIGMVYFPRIGD came in with an amyloid nucleation score of 0.318 ± 0.79.

As for YIDRRLRLRVG, the amyloid nucleation score entry is “inactive”.

As to AGSFFSYGQFVKFTVLYHSE, the amyloid nucleation score is -0.053 ± 0.6.

Substance ETRYPPRVNSVYTVWPMYLL gave an amyloid nucleation score of 0.464 ± 0.43.

AAPRWSYEAASANAMLFVIL registered an amyloid nucleation score of 2.89 ± 0.25.

In turn, SQAETLYFYVCQVLRGQYYD came in with an amyloid nucleation score of 0.305 ± 0.32.

In turn, LRKDGSGK registered an amyloid nucleation score of 1.06 ± 0.21.

For the substance FLIFKSCLVGILRSSNKIGC, the amyloid nucleation score was -0.469 ± 1.1.

The substance KSSSV came in with an amyloid nucleation score of -0.352 ± 0.6.

In the case of VLLACGIFKDPTSCFCMLSL, the amyloid nucleation score was -0.432 ± 0.48.

VNDYWNFCYVCWKYQSIILY: the amyloid nucleation score was 3.14 ± 0.18.

Consider FMSNIDLFTGFLRDMWFIIF, for which the amyloid nucleation score is -0.312 ± 0.55.

Turning to FTNPRINMSRFSLSFCPARY, the amyloid nucleation score amounted to 2.1 ± 0.25.

As for LSQIWIKSPGFAKDFTPILC, the amyloid nucleation score turned out to be 0.045 ± 0.36.

As for SYCMLNAVPVEMRLTLPGIR, the amyloid nucleation score is 0.389 ± 0.49.

In the case of RIGETASYTL, the amyloid nucleation score was -0.09 ± 0.47.

On to HYQERC, for which the amyloid nucleation score is -0.604 ± 0.34.

Turning to RFTGQWWYVFSLWAILSRIK, the amyloid nucleation score worked out at 0.357 ± 0.55.

For YTFNVVCILTTEYWGNGWLY, the amyloid nucleation score was 2.91 ± 0.16.

For the substance DQRVDR, the amyloid nucleation score was 0.107 ± 0.89.

For the substance VECSCKLRLAASGGNYRGWG, the amyloid nucleation score was found to be 2.3 ± 0.25.

In turn, NDIYLDGNVFKF showed an amyloid nucleation score of -0.477 ± 0.37.

AFHLTSSSLFLFSWNSWVAV yielded an amyloid nucleation score of 5.3 ± 0.082.

For TTSYHTNGRAVRIVYPFANS, the amyloid nucleation score is -0.096 ± 0.6.

RTGITNTKPTQWSYNQSLSS: the amyloid nucleation score was -0.291 ± 0.52.

For the substance YSNWSCLYCSKSL, the amyloid nucleation score stood at 7.552 ± 0.053.

In turn, MYYSIGWKR displayed an amyloid nucleation score of 1.48 ± 0.8.

In turn, NAFSYTGRYIGLPRELGVLR returned an amyloid nucleation score of 1.06 ± 0.52.

IPKCMYGRDRICLMLVAFEN showed an amyloid nucleation score of 1.79 ± 0.28.

With DEFSFDSSLLMLFGAGYGV, the amyloid nucleation score was 0.932 ± 0.62.

Consider IGMALKWNFLCKSSDRFLRV, for which the amyloid nucleation score is 0.296 ± 0.97.

The substance RYDPMLWINLYCFLITGG displayed an amyloid nucleation score of 0.334 ± 0.39.

VDVYFTSAMLSRLGLVGAVA displayed an amyloid nucleation score of 0.862 ± 0.64.

With QVTTSPQ, the amyloid nucleation score is -0.387 ± 0.56.

On to VIAFCSRPDC, for which the amyloid nucleation score was 0.425 ± 0.52.

YTCSVGDVMINDSETSSKAG gave an amyloid nucleation score of 0.053 ± 0.24.

QSDKCCLMYGECVHVVC had an amyloid nucleation score of 2.83 ± 0.069.

Regarding VRMIT, the amyloid nucleation score came out at 0.388 ± 0.64.

ILGAI gave an amyloid nucleation score of 1.66 ± 0.58.

As for LVNWYTQILICTCPGHKLRR, the amyloid nucleation score was determined as 8.156 ± 0.053.

MRENIWPITCSNL displayed an amyloid nucleation score of 2.28 ± 0.57.

The substance FRYSSDWWSYS returned an amyloid nucleation score of -0.834 ± 1.4.

Regarding WNRRGA, the amyloid nucleation score is -0.054 ± 0.35.

In the case of SRYYASMYLGNYGWHVLLNW, the amyloid nucleation score is -0.103 ± 0.23.

The substance RSNCDFLSNNYGFLFGFLSQ had an amyloid nucleation score of 0.525 ± 0.44.

Turning to SQAMTPNGVTSLLFTN, the amyloid nucleation score was -0.236 ± 0.59.

IRFHCLHLVAVLTKTRVFEA came in with an amyloid nucleation score of 0.064 ± 0.95.

Consider FSYYVKGDGKERVGWMASIM, for which the amyloid nucleation score is -0.94 ± 0.94.

The substance CFWVEMFFSETHMIKNYCIV came in with an amyloid nucleation score of 1.27 ± 0.61.

Turning to CNLIYCTFDYLNFWDYYTID, the amyloid nucleation score came out at 6.64 ± 0.054.

As to VRRQRKVVLPTLMGNASGRP, the amyloid nucleation score is -0.183 ± 0.43.

Substance DVGMLV came in with an amyloid nucleation score of -0.107 ± 0.31.

In the case of TFLITRMCYSTVQKKEVVFW, the amyloid nucleation score is -0.189 ± 1.2.

Regarding IFSIGW, the amyloid nucleation score is 0.816 ± 0.45.

For WVRLINSGGQSYFRCGEGRS, the amyloid nucleation score turned out to be 0.654 ± 1.2.

Turning to RSISSVLVSIFTKMG, the amyloid nucleation score amounted to 0.232 ± 0.35.

As for LSWFMGLSYIKILYYCHIYD, the amyloid nucleation score is -0.142 ± 1.1.

The substance YYVKISLGGSLNNLWKRDWW displayed an amyloid nucleation score of 3.54 ± 0.1.

Regarding YRDSGDRNLGIAPI, the amyloid nucleation score was 0.449 ± 0.97.

For the substance SDLCSLLASQRFLRRSGYKL, the amyloid nucleation score result was “inactive”.

DEDERWCLDIVG came in with an amyloid nucleation score of -0.076 ± 0.37.

CHWSCRSEVMPESVTDAGGW had an amyloid nucleation score of -0.072 ± 0.67.

The substance RPWAWPRCRSCAST yielded an amyloid nucleation score of 0.689 ± 0.37.

LWCCMTLTIASNDFLNIRCM displayed an amyloid nucleation score of 1.31 ± 0.15.

PRRMKT: the amyloid nucleation score came to 0.15 ± 0.33.

For the substance LCFYDKYGPQYL, the amyloid nucleation score was -0.59 ± 0.54.

Turning to WGSSLRRTYMFYLDFDGWVN, the amyloid nucleation score is -0.405 ± 1.7.

With RRNHNSRVVINVLMHVRCSI, the amyloid nucleation score came to 1.95 ± 0.1.

For SSSYDY, the amyloid nucleation score is -0.545 ± 0.28.

YMWFMNRSILIIAELFVVFT had an amyloid nucleation score of -0.287 ± 0.48.

WNQTSPRQCAVTMSANVTGN returned an amyloid nucleation score of 0.575 ± 0.68.
